Experimental data: IntAct's records for PubMed 20881132

Molecular target: sgg_drome sgg (UniProt P18431)
Chain of UniProt P18431 (P18431 whole entry): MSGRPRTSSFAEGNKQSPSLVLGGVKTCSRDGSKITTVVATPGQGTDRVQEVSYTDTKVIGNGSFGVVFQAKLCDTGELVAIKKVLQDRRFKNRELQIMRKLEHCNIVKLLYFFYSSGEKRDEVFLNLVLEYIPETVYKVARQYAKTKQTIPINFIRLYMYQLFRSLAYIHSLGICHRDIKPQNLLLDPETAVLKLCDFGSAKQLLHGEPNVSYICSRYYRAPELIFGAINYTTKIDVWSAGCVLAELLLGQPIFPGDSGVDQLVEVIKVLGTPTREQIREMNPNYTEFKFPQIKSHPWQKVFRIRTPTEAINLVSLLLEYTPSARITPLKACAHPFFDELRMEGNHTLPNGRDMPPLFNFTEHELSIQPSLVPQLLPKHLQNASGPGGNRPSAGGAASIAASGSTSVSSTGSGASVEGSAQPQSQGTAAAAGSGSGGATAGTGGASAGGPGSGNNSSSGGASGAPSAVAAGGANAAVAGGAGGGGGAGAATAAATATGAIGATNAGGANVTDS

effect of a mutation on the interaction: increasing interaction
Substance: Leucine-rich repeat serine/threonine-protein kinase 2 (Homo sapiens), Q5S007 G2019S
